Substrate in this data set: CO[C@@H]1O[C@H](CO)[C@H](O)[C@@H](O)[C@H]1O
Put plainly: purified protein. Format: biochemical, Escherichia coli. As to conditions: oxidation, 2.0 mM NAD+, 50 mM HEPES/K+, pH 8.0, 30 °C.

The Km is the substrate concentration at which the rate is half of its maximum. For orientation: kcat means the maximal rate divided by the concentration of active sites. The kcat/Km is the second-order rate constant that governs catalysis at low substrate concentration.

B1: YcjQ (Escherichia coli K-12) (protein)
chain: MKKLVATAPRVAALVEYEDRAILANEVKIRVRFGAPKHGTEVVDFRAASPFIDEDFNGEWQMFTPRPADAPRGIEFGKFQLGNMVVGDIIECGSDVTDYAVGDSVCGYGPLSETVIINAVNNYKLRKMPQGSSWKNAVCYDPAQFAMSGVRDANVRVGDFVVVVGLGAIGQIAIQLAKRAGASVVIGVDPIAHRCDIARRHGADFCLNPIGTDVGKEIKTLTGKQGADVIIETSGYADALQSALRGLAYGGTISYVAFAKPFAEGFNLGREAHFNNAKIVFSRACSEPNPDYPRWSRKRIEETCWELLMNGYLNCEDLIDPVVTFANSPESYMQYVDQHPEQSIKMGVTF
Consider B1, for which the Km is 12.5 ± 1.5 mM, the kcat amounted to 0.35 ± 0.03 s⁻¹ and the kcat/Km amounted to 28 ± 3 M⁻¹ s⁻¹.

Source of the values: publication PMC6613369.
